The supplement of paper PMC10899765
Several values for one entry are separate records, joined by “and”; a condition that tells them apart may be missing. Identical values can stand only once.

Experiments:
Details in all cases: 20 nM; 72 h
[1] = test system: MCF10A; test: percent viability (nuclei count relative to siNT); higher = more viable cells
Protocol: (§1)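 After 72 h, cells were fixed and stained with Hoechst and anti-fibrillarin, and nucleoli per nucleus were counted with CellProfiler. Values are plate-adjusted percent effect for the one-nucleolus and 5+ nucleoli phenotypes, normalised to siNT (0%) and to the positive controls siNOL11 or siKIF11 (100%), as the mean of biological triplicates. Percent viability is the nuclei count relative to siNT.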

[2] = test system: MCF10A; test: one-nucleolus phenotype percent effect (relative to siNT 0% and siNOL11 100%); higher = more cells with one nucleolus (ribosome biogenesis inhibition)
Protocol: as §1

[3] = test system: MCF10A; test: 5+ nucleoli phenotype percent effect (relative to siNT 0% and siKIF11 100%); higher = more cells with five or more nucleoli
Protocol: as §1

Sequence	percent viability [1]	one-nucleolus phenotype percent effect [2]	5+ nucleoli phenotype percent effect [3]
CUGGACUUUGAUCUUGCCAUAA [hsa-miR-8058]	58.9%	32.1%	-11.1%
AGAAGGCCUUUCCAUCUCUGU [hsa-miR-4493]	45.9%	41.7%	-36.6%
CAAAACCGCGAUUACUCUUGCA [hsa-miR-548ay-3p]	25.8%	52%	-63.9%
GUAGGGGAGGUUGGGCCAGGGA [hsa-miR-6824-5p]	78.1%	-25.3%	39.2%
UGAGCACCACACAGGCCGGGCGC [hsa-miR-3663-3p]	58.5%	-6.6%	12.4%
AGGAUAGGAAGAAUGAAGUGCU [hsa-miR-5191]	40.6%	14.1%	-7.65%
AAUCACUAACCACACGGCCAGG [hsa-miR-34c-3p]	70.3%	-3.51%	13.7%
CUAGGUAUGGUCCCAGGGAUCC [hsa-miR-331-5p]	111%	-17.6%	19%
UGCCCUUAAAGGUGAACCCAGU [hsa-miR-938]	57.4%	6.19%	6.12%
AUAGGCACCAAAAAGCAACAA [hsa-miR-4423-3p]	12.9%	0.708%	-11.3%
CAGGCAGGGAGGUGGGACCAUG [hsa-miR-6808-5p]	21.7%	28.6%	-14.6%
AGGGCAUAGGAGAGGGUUGAUAU [hsa-miR-3945]	27.2%	-1.06%	34.8%
ACAGUAGUCUGCACAUUGGUUA [hsa-miR-199a-3p]	67.2%	-13.9%	18.7%
UGUGGAAGGUAGACGGCCAGAGA [hsa-miR-3190-3p]	19.8%	42.7%	-44%
UGAGAACUGACAAAUGUGGUAGG [hsa-miR-7153-5p]	61.9%	-18.9%	14%
UGCCCCACCUGCUGACCACCCUC [hsa-miR-4758-3p]	76.4%	-20.9%	31.8%
AUCACAUUGCCAGGGAUUACC [hsa-miR-23b-3p]	103%	0.34%	-9.04%
UGUGGGUGGGAAGGACUGGAUU [hsa-miR-6748-5p]	22.6%	30.1%	-25.6%
UUCCAGCCCUUCUAAUGGUAGG [hsa-miR-6512-3p]	33.8%	39.8%	-33.4%
CCUGCGAGUCUCCGGCGGUGG [hsa-miR-6068]	97.4%	-17.2%	24.3%
AUUCUGCAUUUUUAGCAAGUUC [hsa-miR-544a]	26.6%	5.39%	-31.2%
UAGCAAGAGAACCAUUACCAUU [hsa-miR-451b]	71.6%	-10.8%	3.42%

Sequence	percent viability [1]	one-nucleolus phenotype percent effect [2]	5+ nucleoli phenotype percent effect [3]
UCUGGGGAUGAGGACAGUGUGU [hsa-miR-4700-5p]	35.8%	29%	-10.2%
CCCGCAGGUGAGAUGAGGGCU [hsa-miR-6886-5p]	28.8%	9.43%	-23.1%
CUCUCACCACUGCCCUCCCACAG [hsa-miR-1229-3p]	75.8%	-20.5%	24.9%
AUACAUGUCAGAUUGUAUGCC [hsa-miR-4666a-5p]	52.7%	-5.95%	3.52%
UGUUCUCUUUGCCAAGGACAG [hsa-miR-2117]	56.1%	-0.405%	4.15%
CAUGCUAGGAUAGAAAGAAUGG [hsa-miR-3146]	30.5%	15.7%	-22.8%
UACUGCAUCAGGAACUGAUUGGA [hsa-miR-217]	62.9%	0.807%	1.56%
UGGGGAAGGCGUCAGUGUCGGG [hsa-miR-4725-3p]	28.1%	26%	-3%
CUGCAGAGUUUGUACGGACCGG [hsa-miR-3678-3p]	66.6%	10.8%	-37.4%
GAAAACGACAAUGACUUUUGCA [hsa-miR-548ad]	129%	-29.2%	40.5%
UGGGCCAGGGAGCAGCUGGUGGG [hsa-miR-4640-5p]	54.9%	15.3%	7.66%
UAGCAGCGGGAACAGUUCUGCAG [hsa-miR-503-5p]	29.1%	14.4%	-16.1%
UGUUUGUUGUAAGGAUCGUUGU [hsa-miR-8068]	34.1%	7.78%	-15.7%
UACUCUGGAGAGUGACAAUCAUG [hsa-miR-514a-5p]	56.4% and 66.9%	-13.3% and -15.4%	29.4% and 19%
AAUCCCAAUGCUAGACCCGGUG [hsa-miR-4733-5p]	19.5%	2.5%	2.55%
AAAGUCUCGCUCUCUGCCCCUCA [hsa-miR-3184-3p]	172%	-19.6%	41.1%
UGAGGUAGUAGGUUGUAUGGUU [hsa-let-7c]	25.9%	-17.3%	56.3%
CUCCUGAGCCAUUCUGAGCCUC [hsa-miR-1200]	58%	27.4%	-30.8%
UCUAUUCCCCACUCUCCCCAG [hsa-miR-6731-3p]	32.5%	-0.0733%	-13.6%
CUAUACAAUCUACUGUCUUUC [hsa-let-7a-3p]	93.9%	-10.4%	10.6%
CGAAUCAUUAUUUGCUGCUCUA [hsa-miR-15b-3p]	131%	-19.7%	28.9%
CACCCCCUGUUUCCUGGCCCAC [hsa-miR-4640-3p]	127%	-11.3%	31.4%
